Source: patent US20230051715A1 (MABWELL THERAPEUTICS, published 2023)
Each block holds one binder with its values, some of them ahead of it.

Key:
[1] = target: T1, cynomolgus monkey C1s (produced in house) (cynomolgus monkey, UniProt P09871 16-685 (human entry), limits assumed); assay: BLI (Octet RED96e), antibody on AHC biosensor; C1s Species: Cyno Monkey; R^2 0.9996
T1 construct: also called CyC1s
T1 chain: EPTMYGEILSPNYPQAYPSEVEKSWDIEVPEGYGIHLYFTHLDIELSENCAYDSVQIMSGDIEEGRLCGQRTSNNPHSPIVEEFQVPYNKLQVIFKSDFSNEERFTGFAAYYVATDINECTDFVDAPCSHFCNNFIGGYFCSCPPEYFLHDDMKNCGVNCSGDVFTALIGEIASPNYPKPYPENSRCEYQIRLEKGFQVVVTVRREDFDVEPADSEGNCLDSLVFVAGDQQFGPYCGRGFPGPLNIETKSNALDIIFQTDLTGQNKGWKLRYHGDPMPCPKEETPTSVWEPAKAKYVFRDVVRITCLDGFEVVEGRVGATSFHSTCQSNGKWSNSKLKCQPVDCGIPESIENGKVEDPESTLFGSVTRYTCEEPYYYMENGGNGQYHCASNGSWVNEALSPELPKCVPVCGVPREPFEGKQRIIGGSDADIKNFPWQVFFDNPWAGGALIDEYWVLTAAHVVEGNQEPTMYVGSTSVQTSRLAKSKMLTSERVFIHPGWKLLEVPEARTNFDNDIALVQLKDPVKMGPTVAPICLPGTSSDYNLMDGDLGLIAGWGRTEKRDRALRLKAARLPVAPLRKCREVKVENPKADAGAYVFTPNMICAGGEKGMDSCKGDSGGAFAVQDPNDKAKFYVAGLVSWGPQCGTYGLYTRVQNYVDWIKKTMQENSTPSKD
Source text: At last, analyte was dissociated in 1×KB for 360 sec. Data analysis was done using OCTET® Data Analysis HT Software (Sartorius AG).

[2] = target: T2, human C1s mutant M9 (K336G, D343Y & E351A) (human, UniProt P09871 16-688); assay: ELISA, plate coated with human C1s mutant M9: K336G, D343Y, E351A, OD450nm
T2 construct: The entry is the mutant itself
T2 sequence: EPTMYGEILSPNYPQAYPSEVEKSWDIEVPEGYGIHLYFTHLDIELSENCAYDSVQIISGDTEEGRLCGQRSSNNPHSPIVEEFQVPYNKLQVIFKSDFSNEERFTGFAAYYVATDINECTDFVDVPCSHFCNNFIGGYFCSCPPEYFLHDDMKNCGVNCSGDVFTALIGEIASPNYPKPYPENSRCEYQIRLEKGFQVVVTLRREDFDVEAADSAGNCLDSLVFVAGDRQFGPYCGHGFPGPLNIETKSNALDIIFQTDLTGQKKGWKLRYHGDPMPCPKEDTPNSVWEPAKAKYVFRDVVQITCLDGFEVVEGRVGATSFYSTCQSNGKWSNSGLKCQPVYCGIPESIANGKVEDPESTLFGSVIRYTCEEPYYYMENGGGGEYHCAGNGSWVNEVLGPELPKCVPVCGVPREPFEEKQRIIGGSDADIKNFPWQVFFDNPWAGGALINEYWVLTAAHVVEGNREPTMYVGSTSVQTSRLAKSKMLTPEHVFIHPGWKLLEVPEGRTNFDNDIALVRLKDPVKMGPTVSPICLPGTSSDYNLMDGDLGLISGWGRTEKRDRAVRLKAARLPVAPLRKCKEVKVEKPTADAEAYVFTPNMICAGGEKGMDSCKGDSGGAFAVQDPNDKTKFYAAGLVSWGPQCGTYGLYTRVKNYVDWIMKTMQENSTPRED
Method: ELISA was carried out by first coating 96-well plates with 200 ng/well of full-length or truncated C1s proteins overnight. The next morning, plates were blocked with SuperBlock T20 blocking buffer (Thermo Scientific 37536) for 1 h with gentle shaking. Then, various concentrations of anti-C1s antibodies diluted in SuperBlock T20 blocking buffer were added to the plates and incubated for 1 h with gentle shaking. Mouse IgG (Sigma-Aldrich 15381) and human IgG1 (BioXCell BP0297) were used as negative controls. The plates were washed before incubating with HRP conjugated secondary antibodies diluted in SuperBlock T20 blocking buffer (goat anti-mouse IgG (H+L) cross-adsorbed secondary antibody HRP (Invitrogen G-21040) or goat anti-human IgG antibody, HRP conjugate (Millipore AP309P)) for 1 h with gentle shaking. At last, the plates were washed and color developed with ELISA liquid HRP substrate (Sigma-Aldrich), followed by stopping the reaction with addition of 1M H₂SO₄ in the same volume as the ELISA liquid substrate. Bound antibody was measured by absorbance at OD₄₅₀ₙₘ.
Binding of anti-C1s antibodies to mutants M1-M20 of human C1s was measured by ELISA as described in Example 4, and results are shown in FIGS. 6B-6U. […]

- Kd [1]: 1.1 nM
- koff [1]: 0.00028 s⁻¹
- kon [1]: 260000 M⁻¹ s⁻¹
B1: Anti-C1s antibody 2-8 (antibody, V domains shown)
VH: EVQLQQSGAELVRPGALVKLSCKASGFNIKEYYMHWVKQRPEQGLEWIGWIDPENGDTIYDPKFQGKASITADTSSNTAYLQLSSLTSEDTAVYYCARSRLFFAYWGQGTLVTVSA
VL: DIVMTQSHKFMSTSVGDRVSFTCKASQDVRTAVDWYQQKPGQSPKLLIYSASYRYTGVPDRFTGTGSGTDFTFTISSVQAEDLAVYFCQQQYTTPYTFGGGTKLEIKT
notes: the HC/LC entries may hold it too; also called clone 2-8

- binding result [2]: no binding (tested: 1000 ng/ml (Log 3))
B2: Anti-C1s antibody hz2-8 (H1L2 G80A/T82A) (antibody, V domains shown)
VH: QVQLVQSGAEVKKPGASVKVSCKASGFNIKEYYMHWVRQAPEQGLEWMGWIDPENADAIYAQKFQGRVTITADTSTNTAYMELSSLRSEDTAVYYCARSRLFFAYWGQGTLVTVSS
VL: DIQMTQSPKSLSASVGDRVTITCRASQDVRTALDWYQQKPGQSPKLLIYSASYRYSGVPSRFSGSGSGTDFTLTISSLQPEDFATYYCQQQYTTPYTFGQGTKLEIKR
notes: Humanized variant with G80A and T82A in HC CDR2 (already in the entry), human IgG1 / kappa
